# Laboratory results taken from the DeepSol protein solubility set.
# Experiment: soluble on expression in E. coli; label from the status in PepcDB or PDB records
row,Sequence,soluble on expression in E. coli
1,SADHDLFRETVYAESLDEALERYSVDTVGDSELATLLPHIEKTFGFPTWAQINEALDTYPDREFVNTVTELLSTANPESLVAAVELMVASARSTTLREELDHEVVLGEYIRSRPNFAEGVRAVLVDKDRNADFTPATTGEVDVTPMRKLLKN,not soluble
2,SADNGGYVPAVVIGTGYGAAVSALRLGEAGVQTLMLEMGQLWNQPGPDGNIFCGMLNPDKRSSWFKNRTEAPLGSFLWLDVVNRNIDPYAGVLDRVNYDQMSVYVGRGVGGGSLVNGGMAVEPKRSYFEEILPRVDSSEMYDRYFPRANSMLRVNHIDTKWFEDTEWYKFARVSREQAGKAGLGTVFVPNVYDFGYMQREAAGEVPKSALATEVIYGNNHGKQSLDKTYLAAALGTGKVTIQTLHQVKTIRQTKDGGYALTVEQKDTDGKLLATKEISCRYLFLGAGSLGSTELLVRARDTGTLPNLNSEVGAGWGPNGNIMTARANHMWNPTGAHQSSIPALGIDAWDNSDSSVFAQIAPMPAGLETWVSLYLAITKNPQRGTFVYDAATDRAKLNWTRDQNAPAVNAAKALFDRINKANGTIYRYDLFGTQLKAFADDFCYQPLGGCVLGKATDDYGRVAGYKNLYVTDGSLIPGSVGVNPFVTITALAERNVERIIKQDVTAS,soluble
3,SAKFSKQSWGLENEALIVRCPRQGKPSYTVDWYYSQTNKSIPTQERNRVFASGQLLKFLPAAVADSGIYTCIVRSPTFNRTGYANVTIYKKQSDCNVPDYLMYSTVSGSEKNSKIYCPTIDLYNWTAPLEWFKNCQALQGSRYRAHKSFLVIDNVMTEDAGDYTCKFIHNENGANYSVTATRSFTVKDEQGFSLFPVIGAPAQNEIKEVEIGKNANLTCSACFGKGTQFLAAVLWQLNGTKITDFGEPRIQQEEGQNQSFSNGLACLDMVLRIADVKEEDLLLQYDCLALNLHGLRRHTVRLSRKNPSKECF,soluble
4,SANDKQYISYNNVHQLCQVSAERIKNFKPDLIIAIGGGGFIPARILRTFLKEPGVPTIRIFAIILSLYEDLNSVGSEVEEVGVKVSRTQWIDYEQCKLDLVGKNVLIVDEVDDTRTTLHYALSELEKDAAEQAKAKGIDTEKSPEMKTNFGIFVLHDKQKPKKADLPAEMLNDKNRYFAAKTVPDKWYAYPWESTDIVFHTRMAIEQGNDIFIPEQEHKQ,soluble
5,SAQKVEAKGGKGGNQWDDGSDHDAVTKIQVAVGGMGIQYIQFDYVKNGQTEQTPLRGIKGSTIPTDPFVINHPEEHLVSIEIWYKPDGLIQGLRFISNKKTSRFIGYDRGTRSFLQVQDKKIIGFHGSAGDNLNSLGAYFAPLTIPLTPAKPLPALGSDDGTAWDDGAYVGVKKVYVGQAQDGISAVKFVYDKSPEEVTGEEHGKSTLLGFEEFVLDYPSEYIIAVEGTYDKIFGSDGSVITMLRFKTNKQTSPPFGLEAGTAFELKEEGHKIVGFHGRADALLHKIGVHVRPVSN,soluble
6,SAQNVYGPGVRIGNWNEDVYLEEELMKDFLEKRDKGKLLIQRSRRLKQNLLRPMQLSVTEDGYIHYGDKVMLVNPDDPDTEADVFLRGDLSLCMTPDEIQSHLKDELEVPCGLSAVQAKTPIGRNTFIILSVHRDATGQVLRYGQDFCLGITGGFDNKMLYLSSDHRTLLKSSKRSWLQEVYLTDEVSHVNCWQAAFPDPQLRLEYEGFPVPANAKILINHCHTNRGLAAHRHLFLSTYFGKEAEVVAHTYLDSHRVEKPRNHWMLVTGNPRDASSSMLDLPKPPTEDTRAMEQAMGLDTQ,soluble
7,SARKSNLPVLLVPFLLCQALVRCSSPLPLVVNTWPFKNATEAAWRALASGGSALDAVESGCAMCEREQCDGSVGFGGSPDELGETTLDAMIMDGTTMDVGAVGDLRRIKNAIGVARKVLEHTTHTLLVGESATTFAQSMGFINEDLSTSASQALHSDWLARNCQPNYWRNVIPDPSKYCGPYKPPGILKQDIPIHKETEDDRGHDTIGMVVIHKTGHIAAGTSTNGIKFKIHGRVGDSPIPGAGAYADDTAGAAAATGNGDILMRFLPSYQAVEYMRRGEDPTIACQKVISRIQKHFPEFFGAVICANVTGSYGAACNKLSTFTQFSFMVYNSEKNQPTEEKVDCI,soluble
8,SASDFEERVVTIPLRDARAEPNHKRADKAMILIREHLAKHFSVDEDAVRLDPSINEAAWARGRANTPSKIRVRAARFEEEGEAIVEAETAE,soluble
9,SATSKLQALWNHPAGPKTIHFWAPTFKWGISIANIADFQKPPENISYLQQIAVTCTGMIWCRCSTIITPKNWNLFSVNVAMAATGIYQLTRKIKYDYVSEAEAAVEIEG,soluble
10,SAVDRDIFGISGPTYLNPVNWNCEHNRRSVAACLVQAVYVLERDRQLGRQSVEALGPPWWEFFHFELIRKLVDDADLSIFGAIFEFNPPSSKESSADNAPRFVIAFRGTITEKETISRDIALDLHLVQNGLHRTSRFTIAMQAVQNVASVFPGSNIWLAGHSLGAGMAILTGRNMVKKGVLLESYLFNPPFVAAPIERISDERVKHGFRIARSVITAGLAIAMKGKGEGSSQRSVAEDSFHILSSWTPYLFVNPGDHICSEYIGYFQHRKNMEDLGAGFIEKLATQNSIGDLFYKALGWESEPLHLLPSADLIVNVSPSPDFKYAHGISQWWQPELNLQCSKYRYSVGA,soluble
11,SCQSEKHPGPELQAAEKWLYFPQLALWRRLGQLSCMSRPALNLRSWLLTILHYLLPFRVLGPHSQVGWRPLSRVSLYKTVPTRLLSRACGRLNQVELPYWLWRPVYSLYIWTFGVNMTEAAVEDLHHYHNLSEFFWHQPIMARSSPLGR,not soluble
12,SDKVINPQVAWAQRSSTTDPERNYVLITVSIADCDAPELTIKPSYIELKAQSKPHVGDENVHHYQLHIDLYKEIIPEKTMHKVANGQHYFLKLYKKDLESEYWPRLTKEKVKYPYIKTDFDKWVDADEQDEVEA,soluble
13,SDSPEQESADDALKRIVDGFQHFRREVFPEQQALFKKLANSQRPRAMFITCADSRIVPELITQSSPGDLFVTRNVGNVVPPYGQMNGGVSTAIEYAVLALGVHHIIVCGHSDCGAMRAVLDPQTLERMPTVKAWLRHAEVARTVVADNCDCGASHDTLGVLTEENVVAQLDHLRTHPSVASRLASGQLFIHGWVYDIESAQIRAYDAKQGRFLPLDGEHPVPMATPAPRYLSS,not soluble
14,SDSSAVITQISKEEARGPLRGKGDQKSAASQKPRSRGILHSLFCCVCRDDGEALPAHSGAPLLVEENGAIPKQTPVQYLLPEAKAQDSDKICVVIDLDETLVHSSFKPVNNADFIIPVEIDGVVHQVYVLKRPHVDEFLQRMGELFECVLFTASLAKYADPVADLLDKWGAFRARLFRESCVFHRGNYVKDLSRLGRDLRRVLILDNSPASYVFHPDNAVPVASWFDNMSDTELHDLLPFFEQLSRVDDVYSVLRQPRPGS,soluble
15,SEAKTLGTVTPRKPVLSVSARKIKDNAADWHNLILKWETLNDAGFTTANNIANLKISLLNKDKIELDSSSPASKENEEKVCLEYNEELEKLCEELQATLDGLTKIQVKMEKLSSTTKGICELENYHYGEESKRPPLFHTWPTTHFYEVSHKLLEMYRKELLLKRTVAKELAHTGDPDLTLSYLSMWLHQPYVESDSRLHLESMLLETGHRAL,soluble
16,SEASFVQTTMALGLSSKKASSRNVAVERKNLITVCRFSVKTLLEKYTAEPIDDSSEEFVNFAAILEQILSHRFKACAPAGPVSWFSSDGQRGFWDYIRLACSKVPNNCVSSIENMENISTARAKGRAWIRVALMEKRMSEYITTALRDTRTTRRFYDSGAIMLRDEATILTGMLIGLSAIDFSFCLKGEVLDGKTPVVIDYTPYLKFTQSYDYLTDEEERHSAESSTSEDNSPEHPYLPLVTDEDSWYSKWHKMEQKFRIVYAQKGYLEELVRLRESQLKDLEAENRRLQLQLEEAAAQNQREKRELEGVILELQEQLTGLIPSDHAPLAQGSKELTTPLVNQWPSLGTLNGAEGASNSKLYRRHSFMSTEPLSAEASLSSDSQRLGEGTRDEEPWGPIGSSEPN,soluble
17,SEDDLTKVLNYTKQRQTEPNPEYYGVAKKKNIIKIHLESFQTFLINKKVNGKEVTPFLNKLSSGKEQFTYFPNFFHQTGQGKTSDSEFTMDNSLYGLPQGSAFSLKGDNTYQSLPAILDQKQGYKSDVMHGDYKTFWNRDQVYKHFGIDKFYDATYYDMSDKNVVNLGLKDKIFFKDSANYQAKMKSPFYSHLITLTNHYPFTLDEKDATIEKSNTGDATVDGYIQTARYLDEALEEYINDLKKKGLYDNSVIMIYGDHYGISENHNNAMEKLLGEKITPAKFTDLNRTGFWIKIPGKSGGINNEYAGQVDVMPTILHLAGIDTKNYLMFGTDLFSKGHNQVVPFRNGDFITKDYKYVNGKIYSNKNNELITTQPADFEKNKKQVEKDLEMSDNVLNGDLFRFYKNPDFKKVNPSKYKYETGPK,soluble
18,SEEDRRLWMEAMDGREPVYNSNKDNQSEGTAQLDSIGFSIIKKCIHAVETRGINEQGLYRIVGVNSRVQKLLSILMDPKTATETETEICAEWEIKTITSALKTYLRMLPGPLMMYQFQRSFIKAAKLENQESRVSEIHSLVHRLPEKNRQMLHLLMNHLAKVADNHKQNLMTVANLGVVFGPTLLRPQEETVAAIMDIKFQNIVIEILIENHEKIFNTVPETPPSNSQLLL,soluble
19,SEEEHPVSHKKSKKKSKKHKEKDQIKKLDIETMEEKEEDLQREETAKLSNASPNPNEGVKEGCTASMEPSSALELPDYLIKYIAIVSYEQRQNYKDDFNAEYDEYRALHARMETVARRFIKLDAQRKRLSPGSKEYQNVHEEVLQEYQKIKQSSPNYHEEKYRCEYLHNKLAHIKRLIGEFDQQQAESWH,soluble
20,SEELDRQKIGGFWREVGVASDQSLVLTAPKRVEGLFLTLSGSNLTVKVAYNSSGSCEIEKIVGSEIDSTGKFAFPGKCSCPVMAGGTRLCTQLGLIVPHAVPCTVPHAVPCTVLCAVPCTVPHAVP,soluble
21,SEITETLCIFIKTPYISEWSLNNAIINAKKYNLNLKVIKIDKIIKNVPERCYLCKKMFFEILTKEKEKYNYDVVVDGTNYDDLFEDRPGLRAKEEFNIGSPFADFKIGKKDILEIAKELNINIPPKET,not soluble
22,SEKVNQTFFLSHGSPTLSIDDSLEARQFFKSWTQKVLPQKPKSILVISAHWDTKFPSVNTVLRNNTIHDFSGFPDPMYKLKYEAPGAIELGKRVKELLMKEGGMKRVDEDTKRGLDHGAWVPLMLMYPEADIPICQLSVQSNQNGSYHYNMGKALASLKDEGVLIIGSGSATHNLRKLDFNITDGSPVPWALEFDHWLRDSLLQGRYGDVNEWEEKAPNAKMAHPWPEHLYPLHVVMGAAGGDAKAEQIHTSWQLGTLSYSSYSFTSSL,soluble
23,SENWDLSSDEMQDGNAPELDVIEEHNPVTRDDENANPEEVVGDTRSPVQNILGKFEGDINKRLHIKRKRMETYIKDSFKDSNVKLEQLWKTNKQERKKINNKFCEQYITTFQKFDMDVQKFNEEQEKSVNNYQKEQQALKLSKCSQSQTLEAIKDMHENYMEGLMNLETNNYNMLFDVDGELRKEMSVFKKDLMKHTLKYSSSFPSSD,not soluble
